Laboratory results from publication PMC4441004, “Functional Characterization and Categorization of Missense Mutations that Cause Methylmalonyl‐CoA Mutase (MUT) Deficiency” (Human Mutation, 2014).
Changes are numbered by the printed parent chain.

B1: MUT p.F573S (enzyme, human)
chain: LHQQQPLHPEWAALAKKQLKGKNPEDLIWHTPEGISIKPLYSKRDTMDLPEELPGVKPFTRGPYPTMYTFRPWTIRQYAGFSTVEESNKFYKDNIKAGQQGLSVAFDLATHRGYDSDNPRVRGDVGMAGVAIDTVEDTKILFDGIPLEKMSVSMTMNGAVIPVLANFIVTGEEQGVPKEKLTGTIQNDILKEFMVRNTYIFPPEPSMKIIADIFEYTAKHMPKFNSISISGYHMQEAGADAILELAYTLADGLEYSRTGLQAGLTIDEFAPRLSFFWGIGMNFYMEIAKMRAGRRLWAHLIEKMFQPKNSKSLLLRAHCQTSGWSLTEQDPYNNIVRTAIEAMAAVFGGTQSLHTNSFDEALGLPTVKSARIARNTQIIIQEESGIPKVADPWGGSYMMECLTNDVYDAALKLINEIEEMGGMAKAVAEGIPKLRIEECAARRQARIDSGSEVIVGVNKYQLEKEDAVEVLAIDNTSVRNRQIEKLKKIKSSRDQALAERCLAALTECAASGDGNILALAVDASRARCTVGEITDALKKVSGEHKANDRMVSGAYRQEFGESKEITSAIKRVHKFMEREGRRPRLLVAKMGQDGHDRGAKVIATGFADLGFDVDIGPLFQTPREVAQQAVDADVHAVGISTLAAGHKTLVPELIKELNSLGRPDILVMCGGVIPPQDYEFLFEVGVSNVFGPGTRIPKAAVQVLDDIEKCLEKKQQSV
notes: methylmalonyl-CoA mutase (MUT), human; construct 'hMUT' of Froese et al., 2010b with a patient missense mutation; Same construct limits as m1 (see its note); source: E. coli, purified (Ni-NTA, Superdex 200, TEV cleavage, reverse Ni-NTA)
B2: MUT p.M700K (enzyme, human)
chain: B1 chain with S541F, M668K
notes: as for B1
B3: MUT p.N366S (enzyme, human)
chain: B1 chain with N334S, S541F
notes: as for B1
B4: MUT p.G426R (enzyme, human)
chain: B1 chain with G394R, S541F
notes: as for B1
B5: MUT p.P86L (enzyme, human)
chain: B1 chain with P54L, S541F
notes: as for B1
B6: MUT p.R694L (enzyme, human)
chain: B1 chain with S541F, R662L
notes: as for B1
B7: MUT p.R694W (enzyme, human)
chain: B1 chain with S541F, R662W
notes: as for B1
B8: MUT p.Y231N (enzyme, human)
chain: B1 chain with Y199N, S541F
notes: as for B1
B9: MUT p.T387I (enzyme, human)
chain: B1 chain with T355I, S541F
notes: as for B1
B10: MUT p.G648D (enzyme, human)
chain: B1 chain with S541F, G616D
notes: as for B1
B11: MUT p.R369H (enzyme, human)
chain: B1 chain with R337H, S541F
notes: as for B1
B12: MUT p.Y100C (enzyme, human)
chain: B1 chain with Y68C, S541F
notes: as for B1
B13: MUT p.V633G (enzyme, human)
chain: B1 chain with S541F, V601G
notes: as for B1
B14: MUT p.Q218H (enzyme, human)
chain: B1 chain with Q186H, S541F
notes: as for B1
B15: MUT p.G717V (enzyme, human)
chain: B1 chain with S541F, G685V
notes: as for B1

Molecular target: the molecule itself
Assay: SEC; Superdex 200 in the large-scale purification from E. coli; retention volumes of the mutants compared with wt MUT; data not shown

| Protein | stoichiometry N |
| --- | --- |
| B1 | 2 |
| B2 | 2 |
| B3 | 2 |
| B4 | 2 |
| B5 | 2 |
| B6 | 2 |
| B7 | 2 |
| B8 | 2 |
| B9 | 2 |
| B10 | 2 |
| B11 | 2 |
| B12 | 2 |
| B13 | 2 |
| B14 | 2 |
| B15 | 2 |
